Measurements reported in patent US12583915 (MEDPACTO, dated 2026).
Residue numbers refer to the chain shown, from its start.

B1: 3G8 antibody (antibody, V domains shown)
VH: QIQLVQSGPELKKPGETVKISCKASGYSFTKYGMNWVKQAPGKDIKWMGWINTNTGEATYGEEVKGRFAFSLETSASTAYLQINNLKNEDTATYFCARLGLRYLDYWGQGTTLTVSS
VL: DIVMTQSPASLVVSLGQRATISCRASKSVSTSDYSYMHWYQQKPGQPPKVLIYLASNLESGVPARFSGSGSGTDFTLNIHPVEEEDAATYYCQHNRELPPTFGAGTKLELK
notes: Mouse monoclonal antibody from a hybridoma; also called 3 GB (as misprinted); anti-BAG2 antibody 3G8
B2: 3B5 antibody (antibody, V domains shown)
VH: EVQLQQSGPELVKPGASVKLSCKASGYSFTDYTFYWVRQSHGESLEWIGYIDPYNGGNTYNRKFKGKATLTVDKSSSTAFMHLNSLTSEDSAVYYCARGYYRYGGGGDFDYWGQGTTLTVSS
VL: DVLMTQTPLSLPVSLGDQASISCRSSQSLVHSNGNTYLHWYLQKPGQSPKLLIHKVSNRFSGVPDRFSGSGSGTDFTLKISRVEAEDLGIYFCSQNTHIPPTFAGGTKLEIK
notes: Mouse monoclonal antibody from a hybridoma; also called anti-BAG2 antibody 3B5
B3: 8C4 antibody (antibody, V domains shown)
VH: QVQLQQPGAELVRPGASVTLSCKASGYTFTDYEMHWVKQTPVHGLEWIGIIDPETAGTAYNQKFKGKATLTADKSSSTAYMELRSLTSEDSAVYYCTRGKFYYSGRDYAMDYWGQGTSVTVSS
VL: DVLMTQTPLSLPVSLGDQASISCRSSQSIVHSNGNTYLEWYLQKPGQSPKLLFYKVSNRFSGVPDRFSGSGSGTDFTLKISRVEAEDLGVYFCFQGSQVPPTFGGGTKLEIK
notes: Mouse monoclonal antibody from a hybridoma; also called 8G4 (as misprinted); anti-BAG2 antibody 8C4
B4: 4C2 antibody (antibody, V domains shown)
VH: B3 VH with A56G, G57A
VL: B3 VL
notes: Mouse monoclonal antibody from a hybridoma; also called anti-BAG2 antibody 4C2
B5: 9B12 antibody (antibody, V domains shown)
VH: QVQLQQSGAELVRPGTSVKVSCKASGYAFTNYMIEWIKQRPGQGLEWIGVINPGSGGSYYNEKVKGKATLTADRSSSTAYMQFSSLTADDSGVYFCRIYGNYKGYFDHWGQGTTLTVSS
VL: DIVMTQSPSSMYASLGERVTITCKASQDMNSYLSWFQQKPGKSPKTLIYRANRLVDGVPSRFSGSGSGQDYSLTISSLEYEDMGIYYCLQNDEFPFTFGSGTKLEMK
notes: Mouse monoclonal antibody from a hybridoma; Capture antibody in the sandwich ELISA; also called anti-BAG2 antibody 9B12
B6: 3B10 antibody (antibody, V domains shown)
VH: B5 VH with S7P, V12A, Y27H, S58T, N61S, F83L
VL: B5 VL with A51S, E79D, M106I
notes: Mouse monoclonal antibody from a hybridoma; also called anti-BAG2 antibody 3B10
B7: 9B3 antibody (antibody, V domains shown)
VH: B5 VH with Q1E, R74K, G92A, H108Y
VL: B5 VL with M29I, M106I
notes: Mouse monoclonal antibody from a hybridoma; also called anti-BAG2 antibody 9B3
B8: 2A11 antibody (antibody, V domains shown)
VH: B3 VH with A56G
VL: B3 VL with F53I
notes: Mouse monoclonal antibody from a hybridoma; Capture antibody in the sandwich ELISA; also called anti-BAG2 antibody 2A11
B9: 3F12 antibody (antibody, V domains shown)
VH: QVQLQESGPDLVKPSQSLSLTCTVTGYSITSGYSWHWIRQFPGNKLEWMGYIYYRGSTNYNPSLKSRISITRDTSKNQFFLLLKSVTTEDTATYYCAREAYWGQGTLVTVSA
VL: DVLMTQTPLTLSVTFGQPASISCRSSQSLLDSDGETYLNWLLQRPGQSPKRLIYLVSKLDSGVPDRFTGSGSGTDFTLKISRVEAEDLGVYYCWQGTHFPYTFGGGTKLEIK
notes: Mouse monoclonal antibody from a hybridoma; also called anti-BAG2 antibody 3F12

Molecular target: T1, human BAG2 protein (human, UniProt O95816 2-211)
T1 construct: also called BAG2 polypeptide; Bcl-2-associated athanogene 2
T1 sequence (O95816 2-211 limits assumed): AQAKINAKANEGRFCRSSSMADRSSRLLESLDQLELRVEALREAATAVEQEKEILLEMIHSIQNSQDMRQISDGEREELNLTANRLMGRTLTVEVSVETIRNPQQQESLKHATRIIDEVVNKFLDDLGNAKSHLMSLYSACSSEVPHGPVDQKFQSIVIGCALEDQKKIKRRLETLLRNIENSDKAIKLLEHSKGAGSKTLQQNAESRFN
Test: Western blot on MDA-MB-231 cell lysate

| binding result | Binder |
| --- | --- |
| binds | B1 |
| binds | B2 |
| binds | B3 |
| binds | B4 |
| binds | B5 |
| binds | B6 |
| binds | B7 |

Molecular target: T2, Myc-tag BAG2 (Homo sapiens (Human), UniProt O95816 1-211, limits assumed)
T2 construct: Expressed in MDA-MB-231 cells; 30 ug of lysate tested in the sandwich ELISA against cells with the Myc-tag empty vector (EV); not tied to this vector in so many words; also called BAG2 overexpressed from the Myc-tag BAG2 expression vector; OE; not shown: Myc tag
T2 sequence (O95816 whole entry): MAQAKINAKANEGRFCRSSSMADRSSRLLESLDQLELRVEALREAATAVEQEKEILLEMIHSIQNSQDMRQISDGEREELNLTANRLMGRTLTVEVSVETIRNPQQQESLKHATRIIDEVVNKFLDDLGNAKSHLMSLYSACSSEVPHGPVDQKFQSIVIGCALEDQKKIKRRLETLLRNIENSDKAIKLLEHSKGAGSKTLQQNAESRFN
Test: sandwich ELISA on lysate of MDA-MB-231 cells overexpressing Myc-tag BAG2 (OE) against empty vector cells (EV)

| binding result | Binder |
| --- | --- |
| binds | B1 |
| binds | B8 |
| binds | B3 |
| binds | B5 |
| binds | B9 |

Molecular target: T1, human BAG2 protein
Test: selection of hybridoma clones by immunoblotting

| binding result | Binder |
| --- | --- |
| binds | B8 |
| binds | B9 |

Molecular target: T3, GST-Bag Full (GST fusion of full-length human BAG2) (human, UniProt O95816 1-211)
T3 construct: Expressed in HEK293T cells, tested in cell lysate by immunoblot; band at about 50 kDa; also called GST-Bag Full vector product; full-length BAG2 polypeptide; not shown: GST tag from the pcDNA3.1+/GST vector, about 26 kDa
T3 sequence (O95816 whole entry, the tested form may be a part): as the sequence (O95816 whole entry) above
Test: immunoblot on lysate of HEK293T cells transfected with GST-Bag Full vector
Text: Next, for domain mapping of the BAG2 antigen to which the ten antibodies identified in Section 1 above, cells, to which the GST-Empty vector (pcDNA3.1+/GST vector, NovoPro Bioscience Inc. China) having a molecular weight of about 26 kDa was introduced, was used as a negative control. GST-Bag Full vector, GST-Bag F1 vector, GST-Bag F2 vector, GST-Bag F3 vector, and GST-Bag F4 vector, each including polynucleotides encoding human BAG2 protein and polynucleotides encoding fragments of the BAG2 protein, were introduced into cells, and the cells with the vectors introduced thereinto were cultured to express the genes, and then, cell lysates were obtained. For cell lysates, immunoblotting was performed using each of the 10 antibodies. The polynucleotide encoding the human BAG2 protein has the nucleotide sequence of SEQ ID NO: 70. The GST-Bag F1, -Bag F2, -Bag F3, and -Bag F4 vectors consist of the nucleotide sequences of SEQ ID NOS: 71 to 74, respectively.
FIGS. 2A and 2B show the results of immunoblotting for the full-length BAG2 polypeptide of anti-BAG2 antibody or a fragment thereof. […] In detail, the immunoblotting was performed as follows: each of the vectors was introduced into HEK293T cells by lipofectamine transfection (Thermo Fisher Scientific, Inc., Waltham, MA, USA) method, and the obtained transformed cells were cultured at a temperature of 37° C. in DMEM (Welgene) medium containing 10% FBS, 100 U/ml penicillin and 100 µg/ml streptomycin for 30 hours, and then cells were isolated. The isolated cells were disrupted using the same method as described in connection with FIG. 1 and subjected to […] analysis on a 12% gel. For immunoblotting, after reacting for 1 hour with the same blocking solution as described in connection with FIG. 1, each of the 10 purified anti-BAG2 antibodies having a concentration of 2 mg/ml was used as a primary antibody at a dilution of 1/10000 dilution and bound to the cells. The goat anti-mouse HRP conjugate used as the secondary antibody was used at a 1/5000 dilution concentration, and Film-photosensing was carried out in the dark using EGL reagent (Amersham Pharmacia Biotech) as a substrate. Standard molecular marker sizes were expressed to confirm the size of BAG2.

| binding result | Binder |
| --- | --- |
| binds | B1 |
| binds | B8 |
| binds | B2 |
| binds | B3 |
| binds | B4 |
| binds | B5 |
| binds | B6 |
| binds | B7 |
| binds | B9 |
